Assay results as given in PMC9133142 (Cell chemical biology, 2022).

B1: mAb ZV-67 (antibody, V domains shown)
VH: QAQLQQSGTGLARPGASVKLSCKASGYTFTSYGISWVTQRAGQGLEWIGVIYPRSGNTYYNEKFRGKATLTADKSSSSAYMELRGLTAEDSAVYFCARENYGSVYWGQGTTLTVSS
VL: DIVMTQSQKFMSTSVGDRVSITCKASQNVGTAVAWYQQKPGQSPKLLIYSASNRYTGVPDRFTGSGSGTDFTLTISNMQSEDLADYFCQQFSSYPYTFGGGTKLEIK
B2: mAb ZV-2 (antibody, V domains shown)
VH: QVQLQESGAELMKPGASVKLSCKTSGYTFIGYWIEWLKQRPGHGLEWVGEIFPGSGRTKYNEKFKGRATFTADTSSNMAYMQLSSLTTEDSAIYYCARYYYGSYYALDYWGQGTSVTVSS
VL: DIVMTQSPSSLSVSAGEKVTLSCKSSQSLLHSGNQKNYLAWYQQKPGQAPKLLIYGASTRESGVPDRFTGSGSGTDFTLTISSVQAEDLAVYYCQNDHSYPLTFGAGTKLELK

Legend:
[1] = biological target: ZDIII-WT as used in BLI (taken as the His6-MBP-ZDIII-WT fusion protein) (Zika virus H/PF/2013, UniProt A0A024B7W1); assay: BLI
Chain of UniProt A0A024B7W1 (A0A024B7W1 whole entry, looked up, the tested form may be a part): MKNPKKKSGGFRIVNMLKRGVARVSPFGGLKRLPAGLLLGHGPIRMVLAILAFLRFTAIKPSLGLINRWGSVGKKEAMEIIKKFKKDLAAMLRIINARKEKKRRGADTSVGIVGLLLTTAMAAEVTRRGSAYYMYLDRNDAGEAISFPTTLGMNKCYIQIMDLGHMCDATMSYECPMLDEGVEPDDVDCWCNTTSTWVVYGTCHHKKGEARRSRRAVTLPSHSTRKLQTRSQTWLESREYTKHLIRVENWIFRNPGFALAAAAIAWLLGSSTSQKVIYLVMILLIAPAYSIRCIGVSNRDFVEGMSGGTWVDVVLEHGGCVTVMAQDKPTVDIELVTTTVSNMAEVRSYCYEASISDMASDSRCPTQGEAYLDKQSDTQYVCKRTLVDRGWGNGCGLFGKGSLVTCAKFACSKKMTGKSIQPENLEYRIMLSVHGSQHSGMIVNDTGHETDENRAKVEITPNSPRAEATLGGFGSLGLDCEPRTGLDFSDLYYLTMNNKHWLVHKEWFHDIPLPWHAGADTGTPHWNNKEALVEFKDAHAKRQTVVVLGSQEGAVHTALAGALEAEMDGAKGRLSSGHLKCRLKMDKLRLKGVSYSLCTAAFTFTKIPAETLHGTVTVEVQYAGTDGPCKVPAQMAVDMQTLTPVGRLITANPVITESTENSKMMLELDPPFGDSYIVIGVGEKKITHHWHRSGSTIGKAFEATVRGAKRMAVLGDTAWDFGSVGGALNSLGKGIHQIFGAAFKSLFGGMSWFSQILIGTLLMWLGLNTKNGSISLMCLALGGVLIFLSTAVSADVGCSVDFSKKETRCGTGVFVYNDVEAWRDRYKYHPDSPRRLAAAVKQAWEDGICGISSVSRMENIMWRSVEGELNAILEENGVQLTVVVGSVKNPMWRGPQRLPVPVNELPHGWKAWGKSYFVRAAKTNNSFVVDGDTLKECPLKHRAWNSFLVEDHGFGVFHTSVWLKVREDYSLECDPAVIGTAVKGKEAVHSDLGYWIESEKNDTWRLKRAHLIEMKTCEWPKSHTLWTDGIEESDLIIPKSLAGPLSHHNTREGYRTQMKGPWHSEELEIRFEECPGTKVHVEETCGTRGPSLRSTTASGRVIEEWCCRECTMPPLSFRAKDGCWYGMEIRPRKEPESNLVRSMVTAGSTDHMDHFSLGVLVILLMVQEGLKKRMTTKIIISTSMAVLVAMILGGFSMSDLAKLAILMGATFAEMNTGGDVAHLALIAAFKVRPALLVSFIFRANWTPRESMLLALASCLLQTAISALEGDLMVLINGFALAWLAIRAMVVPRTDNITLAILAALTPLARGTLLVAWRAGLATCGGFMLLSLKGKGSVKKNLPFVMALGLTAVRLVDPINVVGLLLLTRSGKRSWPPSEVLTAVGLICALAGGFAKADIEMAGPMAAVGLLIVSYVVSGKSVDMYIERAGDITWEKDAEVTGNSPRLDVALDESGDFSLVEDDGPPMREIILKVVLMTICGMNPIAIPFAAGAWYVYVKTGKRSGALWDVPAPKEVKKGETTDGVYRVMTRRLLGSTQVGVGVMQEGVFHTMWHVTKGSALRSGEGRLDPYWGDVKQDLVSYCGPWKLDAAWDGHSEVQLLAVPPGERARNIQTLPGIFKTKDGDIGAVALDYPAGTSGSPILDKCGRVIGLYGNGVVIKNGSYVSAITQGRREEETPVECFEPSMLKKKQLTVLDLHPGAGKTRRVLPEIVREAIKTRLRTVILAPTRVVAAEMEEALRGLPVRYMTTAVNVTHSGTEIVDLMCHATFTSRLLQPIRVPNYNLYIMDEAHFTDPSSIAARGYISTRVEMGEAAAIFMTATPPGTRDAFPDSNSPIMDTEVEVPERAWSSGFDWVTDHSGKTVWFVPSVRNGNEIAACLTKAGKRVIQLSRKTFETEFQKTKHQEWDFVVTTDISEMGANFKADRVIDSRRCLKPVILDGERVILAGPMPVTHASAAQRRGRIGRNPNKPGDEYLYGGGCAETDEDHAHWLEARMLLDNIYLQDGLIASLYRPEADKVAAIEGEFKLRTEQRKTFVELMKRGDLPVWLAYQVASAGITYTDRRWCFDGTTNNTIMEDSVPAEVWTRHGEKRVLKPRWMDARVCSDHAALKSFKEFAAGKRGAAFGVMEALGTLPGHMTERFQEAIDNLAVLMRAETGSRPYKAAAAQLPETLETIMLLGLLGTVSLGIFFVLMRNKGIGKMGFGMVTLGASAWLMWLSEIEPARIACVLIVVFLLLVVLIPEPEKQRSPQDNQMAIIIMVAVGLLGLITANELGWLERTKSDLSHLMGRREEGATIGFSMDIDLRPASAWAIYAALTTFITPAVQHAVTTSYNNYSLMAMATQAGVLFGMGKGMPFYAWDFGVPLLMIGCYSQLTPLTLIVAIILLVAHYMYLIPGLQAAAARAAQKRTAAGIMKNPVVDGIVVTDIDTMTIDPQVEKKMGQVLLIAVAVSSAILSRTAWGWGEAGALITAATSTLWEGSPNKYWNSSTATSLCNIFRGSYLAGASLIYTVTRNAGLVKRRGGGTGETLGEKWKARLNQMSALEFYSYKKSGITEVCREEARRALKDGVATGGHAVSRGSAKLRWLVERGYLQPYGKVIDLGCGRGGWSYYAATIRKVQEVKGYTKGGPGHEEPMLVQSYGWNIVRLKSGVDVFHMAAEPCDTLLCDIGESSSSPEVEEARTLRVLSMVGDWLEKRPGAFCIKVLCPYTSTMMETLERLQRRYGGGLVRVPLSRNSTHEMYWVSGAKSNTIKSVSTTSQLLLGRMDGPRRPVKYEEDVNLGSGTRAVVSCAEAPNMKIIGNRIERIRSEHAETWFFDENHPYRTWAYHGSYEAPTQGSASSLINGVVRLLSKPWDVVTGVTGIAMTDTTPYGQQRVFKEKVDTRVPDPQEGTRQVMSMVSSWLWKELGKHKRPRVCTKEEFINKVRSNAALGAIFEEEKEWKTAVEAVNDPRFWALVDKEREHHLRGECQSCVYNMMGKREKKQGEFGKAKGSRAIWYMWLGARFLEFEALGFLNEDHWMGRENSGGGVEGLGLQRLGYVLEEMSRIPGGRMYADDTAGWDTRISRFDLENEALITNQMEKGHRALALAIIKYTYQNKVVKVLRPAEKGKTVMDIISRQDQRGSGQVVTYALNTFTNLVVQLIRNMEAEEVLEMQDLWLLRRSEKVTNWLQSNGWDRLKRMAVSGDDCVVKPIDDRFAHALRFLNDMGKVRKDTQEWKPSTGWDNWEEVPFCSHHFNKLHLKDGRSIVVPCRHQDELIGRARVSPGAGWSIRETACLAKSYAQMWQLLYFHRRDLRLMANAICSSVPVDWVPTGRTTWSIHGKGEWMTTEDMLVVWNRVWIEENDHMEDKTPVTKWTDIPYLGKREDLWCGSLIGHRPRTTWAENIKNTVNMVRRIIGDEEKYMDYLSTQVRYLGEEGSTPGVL

[2] = biological target: MBP alone (negative control in BLI) (Escherichia coli K12, UniProt P0AEX9 = MBP); assay: BLI
[3] = biological target: ZDIII-WT, soluble purified protein with C-terminal SpyTag (Zika virus H/PF/2013, UniProt A0A024B7W1); assay: ELISA

| Binder | Kd [1] [nM] | binding result [2] | EC50 [3] [nM] |
| --- | --- | --- | --- |
| B1 | 43 ± 1.1 | no binding | 14 |
| B2 | 10.7 ± 0.09 | no binding |  |
